Data as given in article PMC12687424 (2025).
FAM = fluorescein label

Target: WT PKCβII catalytic domain (UniProt P05771-2 321-673, primed (phosphorylated) at the three PKC priming sites (T-loop, turn motif, hydrophobic motif))
Experiment: FP; representative curve

WT PKCβII catalytic domain, sequence (P05771 other isoform, or with tags, fused parts or gaps): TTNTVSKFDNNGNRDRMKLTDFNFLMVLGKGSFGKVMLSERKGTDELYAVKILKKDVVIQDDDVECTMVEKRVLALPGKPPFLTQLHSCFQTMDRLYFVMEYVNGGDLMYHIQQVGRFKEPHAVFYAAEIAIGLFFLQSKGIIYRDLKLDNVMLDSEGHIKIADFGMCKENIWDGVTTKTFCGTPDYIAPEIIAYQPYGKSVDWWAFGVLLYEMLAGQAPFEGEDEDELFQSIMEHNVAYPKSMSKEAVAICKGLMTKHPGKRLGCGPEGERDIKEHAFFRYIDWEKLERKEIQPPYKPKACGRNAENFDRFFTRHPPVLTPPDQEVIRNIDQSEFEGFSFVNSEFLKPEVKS

Kd: 39 µM
Binder: {FAM}-ESTVRFARKGSLRQKNVH-NH2 [Fluorescein-PSS peptide]
